From patent US20180080926A1
Read-outs that look alike come from different tables or passages of the source.

Assays:
[1] = molecular target: mitochondrial mitofusins; assay: cell-based or functional assay
[2] = molecular target: mitochondrial mitofusins; assay: cell-based or functional assay; remark: listed apart in the source

**Q.** TAT-367-384Gly (peptide) was tested. Which EC50 of mitochondrial elongation (enhanced fusion), mitochondrial aspect ratio in MEFs [1] did it give?
**A.** Its EC50 of mitochondrial elongation (enhanced fusion), mitochondrial aspect ratio in MEFs is 280 nM.

**Q.** Which EC50 of mitochondrial shortening (suppressed fusion), mitochondrial aspect ratio in MEFs [1] does the source give for TAT-398-418Gly (peptide) here?
**A.** The EC50 of mitochondrial shortening (suppressed fusion), mitochondrial aspect ratio in MEFs was 250 nM.

B1: GoFuse-C fusion construct (peptide)
peptide: GIMDSLHMAARGGYGRKKRRQRRR
**Q.** With B1 as the molecule, how does the EC50 of mitochondrial elongation (enhanced fusion), mitochondrial aspect ratio in MEFs [2] read?
**A.** Its EC50 of mitochondrial elongation (enhanced fusion), mitochondrial aspect ratio in MEFs is 389 nM.

B2: TetherX-C fusion construct (peptide)
peptide: GELLAQDYKLRGGYGRKKRRQRRR
**Q.** B2 was tested. Which EC50 of mitochondrial shortening (suppressed fusion), mitochondrial aspect ratio in MEFs [2] did it give?
**A.** The EC50 of mitochondrial shortening (suppressed fusion), mitochondrial aspect ratio in MEFs was 171 nM.
